Reference: US20120277143A1

How the values were obtained:
human IL13 R130Q (human) = human IL13 R130Q (human) (UniProt P35225); experiment: Luminex competition, 80 pM biotin-IL13 R130Q binding to IL13Ra2-Fc beads
human IL13 (human) [1] = target: human IL13 (human) (UniProt P35225); experiment: SPR BIAcore, biotin-IL13 on SA chip, global fit
[2] = target: cyno IL13 (cynomolgus monkey) (UniProt Q0PW92); experiment: cell-based or functional assay
human IL13 (human) [3] = target: human IL13 (human) (UniProt P35225); experiment: cell-based or functional assay

Chain of human IL13 (human) (P35225 other isoform, or with tags, fused parts or gaps limits assumed): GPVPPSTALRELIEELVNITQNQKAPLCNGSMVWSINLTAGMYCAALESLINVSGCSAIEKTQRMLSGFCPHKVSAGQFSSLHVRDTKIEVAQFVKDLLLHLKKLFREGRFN
Chain of human IL13 R130Q (human) (P35225 35-146 limits assumed, stated change not applied): as the sequence (P35225 other isoform, or with tags, fused parts or gaps limits assumed) above, with R110Q counted along it
Chain of cyno IL13 (cynomolgus monkey) (Q0PW92 entry or part of it): as the sequence (P35225 other isoform, or with tags, fused parts or gaps limits assumed) above, with G1S, R10K, M42V, S67N, H83R, L100V, R110Q counted along it

Row | Binder | IC50 (human IL13 R130Q (human)) [nM] | Kd (human IL13 (human) [1]) [nM] | koff (human IL13 (human) [1]) [s⁻¹] | kon (human IL13 (human) [1]) [M⁻¹ s⁻¹] | Cyno IL13 STAT6 IC50 [2] [nM] | STAT6 Phospho IC50 (human IL13 (human) [3]) [nM] | TARC expression IC50 (human IL13 (human) [3]) [nM]
1 | 7H3 (designed binder, part only; not given: N-cap, C-cap, His tag, part only) chain, part: TDMYGSTPLHLAARHGHLEIVEVLLKYGADVNAFDFIGDTPLHLAAYRGHLEIVEVLLKYGVDVNADDHYGDTPLHLAASMGHLEIVEVLLKNGADVNA | 0.0669 | 0.131 | 0.00056 | 4.26e+06 | 0.388 | 0.0253 | 0.0696
2 | 5D2 (designed binder, part only; not given: N-cap, C-cap, His tag, part only) chain, part: KDLFGSTPLHLAARHGHLEIVEVLLKNGADVNAEDFIGDTPLHLAAYRGHLEIVEVLLKYGVDVNADDHYGDTPLHLAASMGHLEIVEVLLKNGADVNA | 0.0322 | 0.145 | 0.000218 | 1.51e+06 | 0.224 | 0.0203 | 0.0714
3 | 5D3 (designed binder, part only; not given: N-cap, C-cap, His tag, part only) chain, part: WDSYGSTPLHLAAREGHLEIVEVLLKYGADVNAKDMIGDTPLHLAAYRGHLEIVEVLLKYGVDVNADDHYGDTPLHLAASMGHLEIVEVLLKNGADVNA | 0.0375 | 0.164 | 0.000144 | 877000 | 3.02 | 0.0169 | 0.0883
